One substance from patent US20050232920A1 can be followed below.

Bounds are passed on as bounds.

In assay [1] the target is factor D purified from human serum (human) (UniProt P00746). Description: SPR (BIAcore), MAb captured by rabbit anti-mouse IgG, factor D as analyte. Background: SPR reads the build-up and loss of mass on a sensor chip optically.
Assay [2] has the same target. The assay is described as follows: SPR (BIAcore), factor D amine-coupled to the chip, MAb 166-32 as analyte.
The target in assay [3] is dog factor D (in dog serum) (dog). The assay is described as follows: cell-based or functional assay. As to conditions: scale: times less effective than on human factor D.
The target in assay [4] is factor D purified from human serum (human) (UniProt P00746). Description: cell-based or functional assay.

Chain of UniProt P00746 (P00746 26-253 N180D): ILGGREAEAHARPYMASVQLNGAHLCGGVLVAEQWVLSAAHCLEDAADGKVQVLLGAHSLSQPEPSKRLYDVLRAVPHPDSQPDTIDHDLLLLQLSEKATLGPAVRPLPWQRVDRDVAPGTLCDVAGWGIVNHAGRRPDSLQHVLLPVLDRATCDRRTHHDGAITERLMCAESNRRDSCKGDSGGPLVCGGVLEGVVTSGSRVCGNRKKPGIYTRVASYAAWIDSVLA

Usually Kd stands for the equilibrium constant for the complex coming apart. Broadly, the koff is a measure of how fast the partners let go of each other. One may read the kon as the rate constant with which the complex forms. Regarding MAb 166-32 (antibody), in assay [1], the Kd is below 100 pM, the koff is 0.00011 s⁻¹ and the kon was above 1e+06 M⁻¹ s⁻¹. In addition, in assay [2], the Kd came to 160 pM, the koff came out at 7.6e-05 s⁻¹ and the kon was determined as 460000 M⁻¹ s⁻¹. Moreover, the neutralization of factor D in hemolytic assays in assay [3] is above 10. For the same substance, in assay [4], the alternative complement activity of plasma from extracorporeal circuits (hemolysis of rabbit red blood cells) (molar ratio (MAb: factor D)) is 1.5, the factor D dependent hemolysis of unsensitized rabbit RBCs (factor D depleted human serum with purified factor D added) came to 0.3 µg/mL and the factor D dependent hemolysis of unsensitized rabbit RBCs: molar ratio for inhibition (molar ratio (MAb 166-32 to factor D)) was found to be 0.5.
